# Measured values published in patent US20180051081A1 (published 2018).
# Positions count from the first letter of the chain named.
# T1: dog CD47 (dog, UniProt A0A8I3PM61 19-310)
# T1 construct: also called CD47 on dog RBCs
# T1 sequence: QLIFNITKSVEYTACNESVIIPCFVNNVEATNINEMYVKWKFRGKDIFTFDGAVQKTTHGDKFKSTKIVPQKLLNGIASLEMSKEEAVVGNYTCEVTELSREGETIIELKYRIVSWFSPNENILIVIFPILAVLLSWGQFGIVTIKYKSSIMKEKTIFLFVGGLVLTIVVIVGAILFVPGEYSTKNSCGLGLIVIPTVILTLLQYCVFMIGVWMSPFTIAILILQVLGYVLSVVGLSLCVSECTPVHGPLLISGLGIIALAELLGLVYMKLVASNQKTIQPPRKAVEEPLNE
# T2: mouse CD47 (mouse, UniProt Q61735 19-303)
# T2 construct: whole, on cells; also called CD47 on mouse RBCs; CD47 on 4T1 cells
# T2 sequence (looked up): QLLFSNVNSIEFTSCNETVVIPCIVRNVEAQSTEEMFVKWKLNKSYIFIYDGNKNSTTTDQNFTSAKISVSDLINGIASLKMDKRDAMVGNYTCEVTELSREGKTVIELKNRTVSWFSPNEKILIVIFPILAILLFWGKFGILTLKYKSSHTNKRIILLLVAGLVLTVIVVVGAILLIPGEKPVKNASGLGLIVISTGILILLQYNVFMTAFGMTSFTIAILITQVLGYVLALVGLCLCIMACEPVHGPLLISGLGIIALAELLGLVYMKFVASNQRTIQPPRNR
# T3: pig CD47 (pig, UniProt Q9GKE8 19-303)
# T3 construct: whole, on cells; also called CD47 on porcine RBCs
# T3 sequence (looked up): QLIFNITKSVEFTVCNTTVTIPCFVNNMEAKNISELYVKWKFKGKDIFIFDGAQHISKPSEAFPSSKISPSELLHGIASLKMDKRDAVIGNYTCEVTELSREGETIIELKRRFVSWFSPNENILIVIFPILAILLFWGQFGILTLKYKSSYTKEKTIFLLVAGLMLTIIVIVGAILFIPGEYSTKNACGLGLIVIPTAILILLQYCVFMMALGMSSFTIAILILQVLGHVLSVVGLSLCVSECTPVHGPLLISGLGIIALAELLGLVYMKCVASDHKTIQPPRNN
# T4: rat CD47 (rat, UniProt P97829 19-303)
# T4 construct: whole, on cells; also called CD47 on rat RBCs
# T4 sequence (looked up): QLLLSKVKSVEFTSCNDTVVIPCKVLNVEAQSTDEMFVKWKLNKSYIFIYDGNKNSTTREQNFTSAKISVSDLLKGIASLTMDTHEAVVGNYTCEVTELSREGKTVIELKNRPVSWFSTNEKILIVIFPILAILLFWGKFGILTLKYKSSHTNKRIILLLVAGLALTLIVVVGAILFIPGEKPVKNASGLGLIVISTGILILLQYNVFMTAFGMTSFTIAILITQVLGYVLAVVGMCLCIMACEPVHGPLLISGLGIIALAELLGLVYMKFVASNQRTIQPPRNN
# B1: Clone 24 (pVxK7b-037-hum24-LC / pVxK7b-037-hum24-HC) (antibody, human IgG1, kappa, V domains shown)
# VH: QVQLQESGPGLVKPGATVKISCKVSGYTFTNYYVFWVRQARGQRLEWIGDINPVNGDTNFNEKFKNRVTITADKSTSTAYMELSSLRSEDTAVYYCARGGYTMDYWGQGTLVTVSS
# VL: AIQLTQSPSSLSASVGDRVTITCRSSQSLVHSNGNTYLHWYQQKPGQAPRLLIYKVSYRFSGVPSRFSGSGSGTEFTLTISSLQPDDFATYYCSQNTHVPRTFGQGTKVEIKR
# notes: also called Cl 24
# B2: Clone 7 (pVxK7b-037-hum07-LC / pVxK7b-037-hum07-HC) (antibody, human IgG1, kappa, V domains shown)
# VH: B1 VH
# VL: DIVMTQTPLSLPVTPGEPASISCRSSQSLVHSNGNTYLHWYLQKPGQSPQLLIYKVSYRFSGVPDRFSGSGSGTDFTLKISRVEAEDVGVYYCSQNTHVPRTFGQGTKVEIKR
# B3: Clone 4 (pVxK7b-037-hum04-LC / pVxK7b-037-hum04-HC) (antibody, human IgG1, kappa, V domains shown)
# VH: QVQLQESGPGLVKPSQTLSLTCTVSGYTFTNYYVFWVRQAPGKGLEWVSDINPVNGDTNFNEKFKNRVTISVDTSKNQFSLKLSSVTAADTAVYYCARGGYTMDYWGQGTLVTVSS
# VL: B1 VL with A1D, L4M, Q42L, A48S, R50Q, V63I, S65A, P85S, D86E, T90V
# B4: Clone 12 (pVxK7b-037-hum12-LC / pVxK7b-037-hum12-HC) (antibody, human IgG1, kappa, V domains shown)
# VH: B1 VH
# VL: B2 VL with L42Q, Q47K, S48A, Q50K
# B5: Clone 23 (pVxK7b-037-hum23-LC / pVxK7b-037-hum23-HC) (antibody, human IgG1, kappa)
# light: DIVMTQTPLSLPVTPGEPASISCRSSQSLVHSNGNTYLHWYQQKPGKAPKLLIYKVSYRFSGVPDRFSGSGSGTDFTLKISRVEAEDVGVYYCSQNTHVPRTFGQGTKVEIKRTVAAPSVFIFPPSDEQLKSGTASVVCLLNNFYPREAKVQWKVDNALQSGNSQESVTEQDSKDSTYSLSSTLTLSKADYEKHKVYACEVTHQGLSSPVTKSFNRGEC
# heavy: not shown
# B6: Clone 5 (pVxK7b-037-hum05-LC / pVxK7b-037-hum05-HC) (antibody, human IgG1, kappa)
# light: B5 light with Q42L, K47Q, A48S, K50Q
# heavy: not shown
# B7: Clone 8 (pVxK7b-037-hum08-LC / pVxK7b-037-hum08-HC) (antibody, human IgG1, kappa)
# light: B5 light
# heavy: not shown
# B8: Clone 10 (pVxK7b-037-hum10-LC / pVxK7b-037-hum10-HC) (antibody, human IgG1, kappa, V domains shown)
# VH: QVQLQESGPGLVKPSQTLSLTCTVSGYTFTNYYVFWVRQARGQRLEWIGDINPVNGDTNFNEKFKNRLTISKDTSKNQVVLTMTNMDPVDTATYYCARGGYTMDYWGQGTLVTVSS
# VL: B2 VL
# B9: Clone 9 (pVxK7b-037-hum09-LC / pVxK7b-037-hum09-HC) (antibody, human IgG1, kappa)
# light: B5 light with I2V, T7S, P15L, E17Q
# heavy: not shown
# notes: also called Cl 9
# B10: Clone 2 (pVxK7b-037-hum02-LC / pVxK7b-037-hum02-HC) (antibody, human IgG1, kappa, V domains shown)
# VH: QVQLQESGPGLVKPSQTLSLTCTVSGYTFTNYYVFWVRQARGQRLEWIGDINPVNGDTNFNEKFKNRVTISADKSISTAYLQWSSLKASDTAMYYCARGGYTMDYWGQGTLVTVSS
# VL: DVVMTQSPLSLPVTLGQPASISCRSSQSLVHSNGNTYLHWYQQKPGQAPRLLIYKVSYRFSGVPSRFSGSGSGTEFTLTISSLQPDDFATYYCSQNTHVPRTFGQGTKVEIKR
# B11: Clone 21 (pVxK7b-037-hum21-LC / pVxK7b-037-hum21-HC) (antibody, human IgG1, kappa, V domains shown)
# VH: B8 VH
# VL: AIQLTQSPSSLSASVGDRVTITCRSSQSLVHSNGNTYLHWYQQKPGQAPRLLIYKVSYRFSGVPDRFSGSGSGTDFTLKISRVEAEDVGVYYCSQNTHVPRTFGQGTKVEIKR
# B12: Clone 22 (pVxK7b-037-hum22-LC / pVxK7b-037-hum22-HC) (antibody, human IgG1, kappa, V domains shown)
# VH: B8 VH
# VL: EIVLTQSPATLSVSPGERATLSCRSSQSLVHSNGNTYLHWYQQKPGQAPRLLIYKVSYRFSGVPSRFSGSGSGTDFTFTISSLEAEDAATYYCSQNTHVPRTFGQGTKVEIKR
# Molecular target: T1, dog CD47
# Assay: FACS, dog RBCs, supernatant 10 ng/ml
# Protocol: (§1) RBCs are incubated for 60 minutes on ice with tissue culture supernatants containing the secreted humanized antibodies at a concentration of 10 ng/ml in a solution of phosphate buffered saline, pH 7.2, 2.5 mM EDTA (PBS+E), or with various concentrations of purified antibodies. Cells are then washed with cold PBS+E, and incubated for an additional hour on ice with FITC labeled donkey anti-human antibody (Jackson Immuno Research Labs, West Grove, Pa.; Catalogue #709-096-149) in PBS+E. Cells are then washed with PBS+E, and antibody binding is analyzed using a BD FACSAria Cell Sorter (Becton Dickinson) or a C6 Accuri Flow Cytometer (Becton Dickinson). Antibody binding is quantitated by comparison of mean fluorescence values relative to that of chimeric antibody >VxP037-01LC (SEQ ID NO:7))/>VxP037-01HC (SEQ ID NO:57). The mean fluorescence value for each antibody is divided by the mean fluorescence value for the chimeric antibody.
row,Binder,mean fluorescence relative to chimera
1,B1,1
2,B2,0.8
3,B3,0.6
4,B4,0.9
5,B5,1.1
6,B6,1.1
7,B7,0.8
8,B8,1.1
9,B9,1
10,B10,1
11,B11,1.1
12,B12,1

# Molecular target: T2, mouse CD47
# Assay: FACS, mouse RBCs, supernatant 10 ng/ml
# Protocol: as §1
row,Binder,mean fluorescence relative to chimera
1,B1,0.7
2,B2,0.4
3,B3,0.6
4,B4,0.6
5,B5,1.4
6,B6,1
7,B7,0.7
8,B8,1.2
9,B9,1.4
10,B10,1.2
11,B11,1.2
12,B12,1.2

# Molecular target: T3, pig CD47
# Assay: FACS, pig RBCs, supernatant 10 ng/ml
# Protocol: as §1
row,Binder,mean fluorescence relative to chimera
1,B1,1.1
2,B2,0.9
3,B3,0.6
4,B4,1.4
5,B5,1.7
6,B6,1.2
7,B7,0.8
8,B8,1.5
9,B9,1.6
10,B10,1.2
11,B11,1.4
12,B12,1.4

# Molecular target: T5, human CD47 (human, UniProt Q08722 19-323)
# T5 construct: whole, on cells; also called CD47 on human RBCs; CD47 on OV10 cells
# T5 sequence (Q08722 19-323): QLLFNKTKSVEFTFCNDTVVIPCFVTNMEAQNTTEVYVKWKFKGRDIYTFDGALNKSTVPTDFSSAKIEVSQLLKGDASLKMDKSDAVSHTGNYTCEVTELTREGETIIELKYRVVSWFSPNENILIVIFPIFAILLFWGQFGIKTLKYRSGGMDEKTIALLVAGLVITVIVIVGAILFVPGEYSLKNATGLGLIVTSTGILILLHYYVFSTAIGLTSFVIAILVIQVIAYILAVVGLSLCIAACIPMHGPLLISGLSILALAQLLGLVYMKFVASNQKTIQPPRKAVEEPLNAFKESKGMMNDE
# Assay: FACS, human RBCs, supernatant 10 ng/ml
# Protocol: as §1
row,Binder,mean fluorescence relative to chimera
1,B1,0.8
2,B2,0.5
3,B3,0.6
4,B4,0.8
5,B5,1.2
6,B6,1
7,B7,0.7
8,B8,1.1
9,B9,1.2
10,B10,1
11,B11,1.2
12,B12,1.1

# Molecular target: T4, rat CD47
# Assay: FACS, rat RBCs, supernatant 10 ng/ml
# Protocol: as §1
row,Binder,mean fluorescence relative to chimera
1,B1,1.2
2,B2,0.8
3,B3,1
4,B4,1.3
5,B5,3.3
6,B6,2.2
7,B7,1.2
8,B8,2.9
9,B9,3.7
10,B10,2.6
11,B11,2.8
12,B12,2.8
